Results published in PMC3500696.
Read-outs that look alike come from different tables or passages of the source.

What was measured:
[1] = target: porcine CSF-1R expressed in Ba/F3 cells (pig)
[2] = target: porcine CSF-1R expressed in Ba/F3 cells (pig); remark: listed apart in the source

**Q.** Which EC50, MTT cell viability assay, Ba/F3 cells expressing porcine CSF-1R [1] does the source give for “bacterially produced porcine CSF-1 (active fragment Ser36-Arg189) (ligand)” here?
**A.** 0.029 µg/mL

**Q.** With “recombinant human CSF-1 (from UniProt P09603 33-554) (ligand)” as the molecule, how does the EC50, MTT cell viability assay, Ba/F3 cells expressing porcine CSF-1R (compared with bacterially produced porcine CSF-1) [1] read?
**A.** 0.034 µg/mL

**Q.** What about the EC50, MTT cell viability assay, Ba/F3 cells expressing porcine CSF-1R (compared with rhIL-34) [2] of the same molecule?
**A.** 0.1 µg/mL

B1: recombinant human Interleukin 34 (ligand)
chain: NEPLEMWPLTQNEECTVTGFLRDKLQYRSRLQYMKHYFPINYKISVPYEGVFRIANVTRLQRAQVSERELRYLWVLVSLSATESVQDVLLEGHPSWKYLQEVETLLLNVQQGLTDVEVSPKVESVLSLLNAPGPNLKLVRPKALLDNCFRVMELLYCSCCKQSSVLNWQDCEVPSPQSCSPEPSLQYAATQLYPPPPWSPSSPPHSTGSVRPVRAQGEGLLP
**Q.** Which EC50, MTT cell viability assay, Ba/F3 cells expressing porcine CSF-1R [2] does the source give for B1 here?
**A.** 0.137 µg/mL
